This is an account of results in US20090269346A1 (RAPTOR PHARMACEUTICAL, published 2009).

In general, Kd refers to the concentration at which binding is half-saturated. Low readings indicate a tighter complex, high ones a looser complex.

The chains are these.
B1: LRP2 CR89 (receptor)
chain: not shown
notes: domain: CR8 and CR9; also called YVWR; L2 CR89; not shown: N-terminal hexahistidine and S-peptide from pET30(+)a

The target of test [1] is T1, RAP-IDU (fusion of RAP and human α-L-iduronidase) (human, UniProt P35475 28-653, limits assumed).
T1 construct: iduronidase served as reporter
T1 sequence: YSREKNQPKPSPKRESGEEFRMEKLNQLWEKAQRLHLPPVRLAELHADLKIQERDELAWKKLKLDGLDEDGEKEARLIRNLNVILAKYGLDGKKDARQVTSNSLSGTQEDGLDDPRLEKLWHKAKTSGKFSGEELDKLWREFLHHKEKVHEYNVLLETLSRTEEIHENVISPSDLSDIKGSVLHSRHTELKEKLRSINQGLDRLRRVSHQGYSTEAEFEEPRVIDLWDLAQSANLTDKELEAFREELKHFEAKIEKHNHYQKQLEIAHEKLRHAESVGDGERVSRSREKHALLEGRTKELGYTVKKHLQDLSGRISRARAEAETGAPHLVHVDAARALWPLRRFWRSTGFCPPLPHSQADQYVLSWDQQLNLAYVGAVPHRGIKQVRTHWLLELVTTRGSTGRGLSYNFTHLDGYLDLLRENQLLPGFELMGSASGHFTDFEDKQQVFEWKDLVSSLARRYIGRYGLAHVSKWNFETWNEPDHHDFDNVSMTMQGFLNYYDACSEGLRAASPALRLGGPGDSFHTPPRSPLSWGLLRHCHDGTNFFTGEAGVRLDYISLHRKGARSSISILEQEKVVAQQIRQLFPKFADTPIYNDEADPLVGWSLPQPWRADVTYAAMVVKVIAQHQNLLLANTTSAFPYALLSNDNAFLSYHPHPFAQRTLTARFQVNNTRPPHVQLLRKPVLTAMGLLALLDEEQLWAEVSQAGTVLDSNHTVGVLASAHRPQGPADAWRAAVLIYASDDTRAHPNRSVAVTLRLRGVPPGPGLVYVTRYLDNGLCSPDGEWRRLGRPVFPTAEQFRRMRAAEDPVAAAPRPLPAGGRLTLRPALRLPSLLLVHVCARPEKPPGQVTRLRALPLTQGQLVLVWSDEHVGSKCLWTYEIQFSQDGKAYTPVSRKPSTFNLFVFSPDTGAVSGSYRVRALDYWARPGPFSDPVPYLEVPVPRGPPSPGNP
Kind of test: solid-phase assay: CR protein coated on the plate, RAP-IDU titrated, bound iduronidase activity read as rfu. The protocol:
Initially, the binding of wild-type RAP to each CR pair or triplet was measured by solid-phase assay. Purified, refolded CR proteins were bound to Maxisorp plates during overnight incubation at 4° C. CR-loaded wells were blocked by resuspending in TBS Superblock (Pierce) supplemented with 5 mM CaCl2 (blocking buffer) and incubating for 1 hour at room temperature. Blocking buffer was removed and wells were washed once in TBS supplemented with 5 mM CaCl2 and 0.05% Tween-20 (wash buffer). Washed wells were incubated with 10 nM purified RAP-IDU (Tanimoto, et al., (2005) Br J Cancer 92, 278-283) for 2 hours at room temperature in blocking buffer. […] Wells were washed four times with wash buffer and resuspended in acidic PBS pH 5.6 supplemented with 200 μg/mL BSA (assay buffer). Iduronidase activity was measured as described previously using the fluorescent substrate 4-MU-α-L-iduronide (Tanimoto, et al., (2005) Br J Cancer 92, 278-283). No binding of RAP-IDU to empty wells was measured. […] RAP bound more weakly to other CR proteins, with dissociation constants from 30 to over 1000 nM.

The next test concerns the target T2, LRP1 CR3-5 (human).
T2 construct: range 852-973; Amplified from human cDNA; also called L1 CR3-5
Nature of the test: solid-phase assay, coated CR protein, anti-RAP, OD450. The protocol:
(§1) Percent of maximum binding is the ratio of the OD at the highest concentration tested for each ligand and the highest OD measured for all such ligands at that concentration.
(§2) Solid phase binding assays-Purified, refolded CR protein (1 μg) was bound to Nunc Maxisorp™ 96-well plates in TBS pH 8 supplemented with 5 mM CaCl₂ (TBSC) overnight at 4° C. Wells were washed with TBSC and then blocked with TBSC containing 2% bovine serum albumin (BSA). RAP ligands were then incubated with the immobilized receptor at a range of concentrations for 2 hours in the above blocking buffer supplemented with 0.05% Tween-20 at room temperature. Control wells contained no added ligand. As an additional control, to determine whether the absence of calcium affected binding, 10 mM EGTA was included in the incubation medium for some samples. Wells were washed with TBSTC and bound ligands detected with polyclonal anti-RAP (BP41/42, 1:1,000, BioMarin). Excess primary antibody was removed and wells washed before incubation with the secondary antibody, HRP-conjugated goat anti rabbit IgG (Bio-Rad). After washing, TMB substrate solutions (Bio-Rad) were added to detect HRP. Color development was stopped with 1N HCl. Absorption at 450 nm was measured with a microplate spectrophotometer (Molecular Devices). Data were plotted and Kd values derived by non-linear regression with the assumption of single-site binding (GraphPad Prism).
(§3) Next, binding of RAP d3 and RAPv2A d3 proteins to LRP1 CR3-5 and LRP2 CR89 was assessed. In order to understand the relative contributions of each RAPv2A d3 mutation to differences in affinity, we also prepared a number of RAPv2A d3 revertants and RAP d3 forward mutants, all comprising sequence variants intermediate between RAPv2A d3 and wild-type RAP d3 (FIGS. 7A and B, Table 1). Samples were tested in triplicate and experiments were repeated at least once. Values from different experiments were combined and a single mean and standard deviation obtained for each concentration of ligand tested.

Test [2] concerns the target B1. Described as above. How it is done: as §1, §2, §3
Test [3] has as its target B1. Nature of the test: solid-phase binding assay: CR protein coated on the plate, ligand titrated, anti-RAP polyclonal and HRP secondary, OD 450 nm. The protocol: as §2
as §3, with “tested. OD values from uncoated wells, receptor-coated wells incubated with buffer alone, and uncoated wells incubated with the highest ligand concentration all gave similar values for all conditions tested. All OD values were corrected by subtracting the OD obtained from uncoated wells.” for “tested.”

T2 sequence (Q07954 852-973): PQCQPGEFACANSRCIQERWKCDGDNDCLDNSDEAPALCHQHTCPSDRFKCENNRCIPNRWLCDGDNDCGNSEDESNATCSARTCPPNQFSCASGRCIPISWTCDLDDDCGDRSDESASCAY
LRP2 CR89, sequence (P98164 1025-1102): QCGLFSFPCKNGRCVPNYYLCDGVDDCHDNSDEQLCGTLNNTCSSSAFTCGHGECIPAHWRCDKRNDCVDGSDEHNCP

For B1, in test [1], the affinity, expressed as Kd, was 29 nM.

B2: VLDLR CR6-8 (receptor)
chain: not shown
notes: range 235-358; also called V CR6-8; not shown: N-terminal hexahistidine and S-peptide from pET30(+)a
Take B2: the dissociation constant Kd in test [1] worked out at 170 nM.

B3: RAP d3 E217K (ligand)
chain: LDRLRRVSHQGYSTEAKFEEPRVIDLWDLEQSANLTDKELEAFREELKHFEAKIEKHNHYQKQLEIAHEKLRHAESVGDGERVSRSREKHALLEGRTKELGYTVKKHLQDLSGRISRAR
notes: forward mutant of wild-type RAP d3; also called RAP E217K; not shown: vector-encoded N-terminal tags of pET30(+)a
For B3, in the test with LRP1 CR3-5, the “% max (percent of maximum binding)” value was found to be 91% and binding was characterised by a dissociation constant (Kd) of 9 nM. Besides, in the test with LRP2 CR89 [2], the “% max (percent of maximum binding)” value came to 5%. In the test with LRP2 CR89 [3], the binding result is listed as “no binding (tested: 100 nM)”.

B4: RAP d3 E251K, K270E (ligand)
chain: LDRLRRVSHQGYSTEAEFEEPRVIDLWDLEQSANLTDKELEAFREELKHFKAKIEKHNHYQKQLEIAHEELRHAESVGDGERVSRSREKHALLEGRTKELGYTVKKHLQDLSGRISRAR
notes: forward mutant of wild-type RAP d3; also called RAP E251K, K270E; not shown: vector-encoded N-terminal tags of pET30(+)a
As to B4, the “% max (percent of maximum binding)” value in the test with LRP1 CR3-5 is 4%; in the test with LRP2 CR89 [2], 2%. Besides, in the test with LRP2 CR89 [3], the binding result is on record as “no binding (tested: 100 nM)”.

B5: RAP d3 E251K (ligand)
chain: LDRLRRVSHQGYSTEAEFEEPRVIDLWDLEQSANLTDKELEAFREELKHFKAKIEKHNHYQKQLEIAHEKLRHAESVGDGERVSRSREKHALLEGRTKELGYTVKKHLQDLSGRISRAR
notes: forward mutant of wild-type RAP d3; also called RAP E251K; not shown: vector-encoded N-terminal tags of pET30(+)a
Regarding B5, in the test with LRP1 CR3-5, the “% max (percent of maximum binding)” value stood at 100% and the Kd amounted to 7 nM. In the test with LRP2 CR89 [2], the “% max (percent of maximum binding)” value came out at 5%. The binding result with LRP2 CR89 [3] is “no binding (tested: 100 nM)”.

B6: RAP d3 E251K, K256A, K270E (ligand)
chain: LDRLRRVSHQGYSTEAEFEEPRVIDLWDLEQSANLTDKELEAFREELKHFKAKIEAHNHYQKQLEIAHEELRHAESVGDGERVSRSREKHALLEGRTKELGYTVKKHLQDLSGRISRAR
notes: forward mutant of wild-type RAP d3; also called RAP E251K, K256A, K270E; not shown: vector-encoded N-terminal tags of pET30(+)a
As to B6, the “% max (percent of maximum binding)” value with LRP1 CR3-5 came to 2%. Further, in the test with LRP2 CR89 [2], the “% max (percent of maximum binding)” value amounted to 40% and the Kd was 114 nM.

B7: RAP d3 K256A, K270E (ligand)
chain: LDRLRRVSHQGYSTEAEFEEPRVIDLWDLEQSANLTDKELEAFREELKHFEAKIEAHNHYQKQLEIAHEELRHAESVGDGERVSRSREKHALLEGRTKELGYTVKKHLQDLSGRISRAR
notes: forward mutant of wild-type RAP d3; also called RAP K256A, K270E; not shown: vector-encoded N-terminal tags of pET30(+)a
In the case of B7, the “% max (percent of maximum binding)” value with LRP1 CR3-5 is 2%; with LRP2 CR89 [2] it was 3%. Further, the binding result in the test with LRP2 CR89 [3] is “no binding (tested: 100 nM)”.

B8: RAP d3 K270E (ligand)
chain: LDRLRRVSHQGYSTEAEFEEPRVIDLWDLEQSANLTDKELEAFREELKHFEAKIEKHNHYQKQLEIAHEELRHAESVGDGERVSRSREKHALLEGRTKELGYTVKKHLQDLSGRISRAR
notes: forward mutant of wild-type RAP d3; also called RAP K270E; not shown: vector-encoded N-terminal tags of pET30(+)a
Take B8: the “% max (percent of maximum binding)” value with LRP1 CR3-5 was 4%; with LRP2 CR89 [2], 2%. Moreover, the binding result with LRP2 CR89 [3] is given as “no binding (tested: 100 nM)”.

B9: RAP d3 H249Y (ligand)
chain: LDRLRRVSHQGYSTEAEFEEPRVIDLWDLEQSANLTDKELEAFREELKYFEAKIEKHNHYQKQLEIAHEKLRHAESVGDGERVSRSREKHALLEGRTKELGYTVKKHLQDLSGRISRAR
notes: forward mutant of wild-type RAP d3; also called RAP H249Y; not shown: vector-encoded N-terminal tags of pET30(+)a
For B9, in the test with LRP1 CR3-5, the “% max (percent of maximum binding)” value turned out to be 90% and the affinity, expressed as Kd, was 28 nM. Further, the “% max (percent of maximum binding)” value in the test with LRP2 CR89 [2] amounted to 2%. For the same molecule, the binding result in the test with LRP2 CR89 [3] was “no binding (tested: 100 nM)”.

B10: LRP6 CR12 (receptor, human, UniProt O75581 1247-1322, looked up)
chain: PTCSPQQFTCFTGEIDCIPVAWRCDGFTECEDHSDELNCPVCSESQFQCASGQCIDGALRCNGDANCQDKSDEKNC
notes: range 1247-1322; also called L6 CR12; not shown: N-terminal hexahistidine and S-peptide from pET30(+)a
Consider B10, for which, in test [1], the Kd was > 1000 nM.

B11: LRP6 CR1-3 (receptor, human, UniProt O75581 1247-1363, looked up)
chain: PTCSPQQFTCFTGEIDCIPVAWRCDGFTECEDHSDELNCPVCSESQFQCASGQCIDGALRCNGDANCQDKSDEKNCEVLCLIDQFRCANGQCIGKHKKCDHNVDCSDKSDELDCYPT
notes: range 1247-1363; also called L6 CR1-3; not shown: N-terminal hexahistidine and S-peptide from pET30(+)a
As to B11, in test [1], the Kd was determined as 328 nM.
